These results are taken from patent publication US20070036814A1.

One experiment has as its target fibrinogen. Put plainly: cell-based or functional assay.
In experiment [1] the target is canine fibrinogen (canine) (UniProt P68213). Put plainly: cell-based or functional assay.

“CIfA protein on the surface of S. aureus strain Newman cells (from UniProt Q53653 40-899) (receptor)” returned a titre in microtitre clumping assay (Newman wild-type) with fibrinogen of 2048 titre. Further, in experiment [1], the decrease in attachment of the fibrinogen receptor mutant to ex vivo polyvinyl chloride and polyethylene tubings exposed to canine blood is above 80%; the loss of adherence of the fibrinogen receptor mutant (cIfA::Tn917) to canine fibrinogen coated PMMA coverslips is above 95%.

In the experiment with fibrinogen, “glutathione S-transferase fusion protein of CIfA Region A (residues 23-550) expressed from pCF24 (from UniProt Q53653 23-550)” showed an Inhibiting concentration, inhibition of clumping by lysate of 9.37 micro g.

In the experiment with fibrinogen, “glutathione S-transferase fusion protein of CIfA regions R, W and M (residues 546-933) expressed from pCF25 (from UniProt Q53653 546-933)” showed an Inhibiting concentration, inhibition of clumping by lysate above 300 micro g.

Substance “glutathione S-transferase fusion protein of CIfA residues 221-550 expressed from pCF31 (from UniProt Q53653 221-550)” displayed an Inhibiting concentration, inhibition of clumping by lysate in the experiment with fibrinogen of 9.37 micro g.
